Ten proteins from patent US20090208440 can be followed below.

In series [1] the target is proteins from human blood serum.
Series [2] deals with peptide with the desired target sequence of TNF-alpha.
The next series concerns the target T1, substrate B.
T1 chain: KKWLGRVPGGPV

Another series deals with T2, substrate A.
T2 chain: LLWLGRVVGGPV

human TNF-alpha, sequence (chain, as listed by the source): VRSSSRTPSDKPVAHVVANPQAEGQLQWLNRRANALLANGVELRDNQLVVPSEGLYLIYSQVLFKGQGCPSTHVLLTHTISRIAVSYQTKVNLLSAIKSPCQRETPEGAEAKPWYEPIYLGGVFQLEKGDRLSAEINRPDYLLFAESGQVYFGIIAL

B1: variant x (protein)
chain: IVGGYNCEENSVPYQVSLNSGYHFCGGSLINEQWVVSAGHCYAAFNGKSRIQVRLGEHNIGVLEGNEQFINAAKIIRHPQYDWKTLNNDIMLIKLSSRAVINARVSTISLPTAPPATGTKCLISGWGNRKDFWTASSGADFPDELQCLDAPVLSQTKCEASYPGKITSNMFCVGFLEGGKDSCQGDSGGPVVRNGQLQGVVSWGDGCAQKNKPGVYTKVYNYVKWIKNTIAANS
B1: the “remaining intact protein as a function of time (proteolytic digestion)” value was “the variants as well as human trypsin I digest human TNF-alpha” with human TNF-alpha and “only trypsin shows activity on serum protein” in series [1].

B2: variant f (protein)
chain: IVGGYNCEENSVPYQVSLNSGYHFCGGSLINEQWVVSAGHCYAAFNGDKSRIQVRLGEHNIEVLEGNEQFINAAKIIRHPQYDRKTLNNDIMLIKLSSRAVINARVSTISLPTAPPATGTKCLISGWGNRKDFWTASSGADYPDELQCLDAPVLSQAKCEASYPGKITSNMFCVGFLEGGKDSCQGDSGGPVVCNGQLQGVVSWGDGCAQKNKPGVYTKVYNYVKWIKNTIAANS
In turn, B2 gave a k with comp./k without comp. in series [2] of 0.487.

B3: Variant 3 (protein)
chain: IVGGYNCEENSVPYQVSLNSGYHFCGGSLINEQWVVSAGHCYAATNGDKSRIQVRLGEHNIEVLEGNEQFINAAKIIRHPQYDRKTLNNDIMLIKLSSRAVINARVSTISLPTAPPATGTKCLISGWGNRKDFWTASSGADYPDELQCLDAPVLSQAKCEASYPGKITSNMFCVGFLEGGKDSCQGDSGGPVVCNGQLQGVVSWGDGCAQKNKPGVYTKVYNYVKWIKNTIAANS
On to B3, for which the “rate constants of proteolytic digestion (proportional to kcat/KM), relative to human trypsin I” value (shortened to “rate constants … relative to human trypsin I”) with substrate B and with substrate A was “serves as a negative control with similar activities as the human trypsin I” in each case.

B4: Variant 2 (protein)
chain: IVGGYNCEENSVPYQVSLNSGYHFCGGSLINEQWVVSAGHCYNGRDLEKSRIQVRLGEHNIEVLEGNEQFINAAKIIRHPQYDRKTLNNDIMLIKLSSRAVINARVSTISLPTAPPATGTKCLISGWGNVRGTWTASSGADYPDELQCLDAPVLSQAKCEASYPGKITSNMFCVGFLEGGKDSCQGDSGGPVVCNGQLQGVVSWGDGCAQKNKPGVYTKVYNYVKWIKNTIAANS
Turning to B4, the “rate constants … relative to human trypsin I” value with substrate B was “the specific activity of variants 1 and 2 is shifted (SEQ ID NOs: 2 and 3, respectively) towards substrate B”.

B5: variant e (protein)
chain: IVGGYNCEENSVPYQVSLNSGYHFCGGSLINEQWVVSAGHCYVNIMAAKSRIQVRLGEHNIEVLEGNEQFINAAKIIRHPQYDRKTLNNDIMLIKLSSRAVINARVSTISLPTAPPATGTKCLISGWGNTTARKTASSGADYPDELQCLDAPVLSQAKCEASYPGKITSNMFCVGFLEGGKDSCQGDSGGPVVCNGQLQGVVSWGDGCAQKNKPGVYTKVYNYVKWIKNTIAANS
The protein B5 returned a k with comp./k without comp. in series [2] of 0.374.

B6: variant c (protein)
chain: IVGGYNCEENSVPYQVSLNSGYHFCGGSLINEQWVVSAGHCYEIANREKSRIQVRLGEHNIEVLEGNEQFINAAKIIRHPQYDRKTLNNDIMLIKLSSRAVINARVSTISLPTAPPATGTKCLISGWGNRGARTTASSGADYPDELQCLDAPVLSQAKCEASYPGKITSNMFCVGFLEGGKDSCQGDSGGPVVCNGQLQGVVSWGDGCAQKNKPGVYTKVYNYVKWIKNTIAANS
B6 came in with a k with comp./k without comp. in series [2] of 0.235.

B7: Variant 1 (protein)
chain: IVGGYNCEENSVPYQVSLNSGYHFCGGSLINEQWVVSAGHCYDAVGRDKSRIQVRLGEHNIEVLEGNEQFINAAKIIRHPQYDRKTLNNDIMLIKLSSRAVINARVSTISLPTAPPATGTKCLISGWGNTITNSTASSGADYPDELQCLDAPVLSQAKCEASYPGKITSNMFCVGFLEGGKDSCQGDSGGPVVCNGQLQGVVSWGDGCAQKNKPGVYTKVYNYVKWIKNTIAANS
As to B7, in the series with substrate B, the “rate constants … relative to human trypsin I” value is “the specific activity of variants 1 and 2 is shifted (SEQ ID NOs: 2 and 3, respectively) towards substrate B”.

B8: variant b (protein)
chain: IVGGYNCEENSVPYQVSLNSGYHFCGGSLINEQWVVSAGHCYGFVMFNKSRIQVRLGEHNIEVLEGNEQFINAAKIIRHPQYDRKTLNNDIMLIKLSSRAVINARVSTISLPTAPPATGTKCLISGWGNRSPLTTASSGADYPDELQCLDAPVLSQAKCEASYPGKITSNMFCVGFLEGGKDSCQGDSGGPVVCNGQLQGVVSWGDGCAQKNKPGVYTKVYNYVKWIKNTIAANS
Consider B8, for which the k with comp./k without comp. in series [2] is 0.187.

B9: variant d (protein)
chain: IVGGYNCEENSVPYQVSLNSGYHFCGGSLINEQWVVSAGHCYKAVVGTKSRIQVRLGEHNIEVLEGNEQFINAAKIIRHPQYDRKTLNNDIMLIKLSSRAVINARVSTISLPTAPPATGTKCLISGWGNRTPISTASSGADYPDELQCLDAPVLSQAKCEASYPGKITSNMFCVGFLEGGKDSCQGDSGGPVVCNGQLQGVVSWGDGCAQKNKPGVYTKVYNYVKWIKNTIAANS
In series [2], B9 returned a k with comp./k without comp. of 0.31.

B10: variant a (protein)
chain: IVGGYNCEENSVPYQVSLNSGYHFCGGSLINEQWVVSAGHCYRPWDPSKSRIQVRLGEHNIEVLEGNEQFINAAKIIRHPQYDRKTLNNDIMLIKLSSRAVINARVSTISLPTAPPATGTKCLISGWGNVHPTSTASSGADYPDELQCLDAPVLSQAKCEASYPGKITSNMFCVGFLEGGKDSCQGDSGGPVVCNGQLQGVVSWGDGCAQKNKPGVYTKVYNYVKWIKNTIAANS
Protein B10 gave a k with comp./k without comp. in series [2] of 0.13.
